What was measured:
Assay in all cases: cell-based or functional assay
[1] = target: HIV-1 Env of pseudovirus 6244_13_B5_4576 (HIV-1)
[2] = target: HIV-1 Env of pseudovirus 191955_A11 (HIV-1)
[3] = target: HIV-1 Env of pseudovirus X2088_c9 (HIV-1)
[4] = target: HIV-1 Env of pseudovirus Ce1172_H1 (HIV-1)
[5] = target: HIV-1 Env of pseudovirus Du172.17 (HIV-1)
[6] = target: HIV-1 Env of pseudovirus CAP45.2.00.G3 (HIV-1)
[7] = target: HIV-1 Env of pseudovirus QH0692.42 (HIV-1)
[8] = target: HIV-1 Env of pseudovirus 1054_07_TC4_1499 (HIV-1)
[9] = target: HIV-1 Env of pseudovirus BF1266.431a (HIV-1)
[10] = target: HIV-1 Env of pseudovirus C4118.c09 (HIV-1)
[11] = target: HIV-1 Env of pseudovirus WEAU_d15_410_787 (HIV-1)
[12] = target: HIV-1 Env of pseudovirus BJOX009000.02.4 (HIV-1)
[13] = target: HIV-1 Env of pseudovirus TRO.11 (HIV-1)
[14] = target: HIV-1 Env of pseudovirus RHPA4259.7 (HIV-1)
[15] = target: HIV-1 Env of pseudovirus CNE17 (HIV-1)
[16] = target: HIV-1 Env of pseudovirus 0815.v3.c3 (HIV-1)
[17] = target: HIV-1 Env of pseudovirus Ce2060_G9 (HIV-1)
[18] = target: HIV-1 Env of pseudovirus 1394C9G1(Rev-) (HIV-1)
[19] = target: HIV-1 Env of pseudovirus 6535.3 (HIV-1)
[20] = target: HIV-1 Env of pseudovirus Ce704809221_1B3 (HIV-1)
[21] = target: HIV-1 Env of pseudovirus A07412M1.vrc12 (HIV-1)
[22] = target: HIV-1 Env of pseudovirus R1166.c01 (HIV-1)
[23] = target: HIV-1 Env of pseudovirus 3016.v5.c45 (HIV-1)
[24] = target: HIV-1 Env of pseudovirus 1006_11_C3_1601 (HIV-1)
[25] = target: HIV-1 Env of pseudovirus 7030102001E5(Rev-) (HIV-1)
[26] = target: HIV-1 Env of pseudovirus 62357_14_D3_4589 (HIV-1)
[27] = target: HIV-1 Env of pseudovirus HIV-16845-2.22 (HIV-1)
[28] = target: HIV-1 Env of pseudovirus Q259.d2.17 (HIV-1)
[29] = target: HIV-1 Env of pseudovirus T250-4 (HIV-1)
[30] = target: HIV-1 Env of pseudovirus CNE58 (HIV-1)
[31] = target: HIV-1 Env of pseudovirus R3265.c06 (HIV-1)
[32] = target: HIV-1 Env of pseudovirus WITO4160.33 (HIV-1)
[33] = target: HIV-1 Env of pseudovirus 235-47 (HIV-1)
[34] = target: HIV-1 Env of pseudovirus C2101.c01 (HIV-1)
[35] = target: HIV-1 Env of pseudovirus 191084 B7-19 (HIV-1)
[36] = target: HIV-1 Env of pseudovirus 249M B10 (HIV-1)
[37] = target: HIV-1 Env of pseudovirus CNE30 (HIV-1)

N49P6 (antibody) gave an IC50 [1] of 0.095 µg/mL, an IC80 [1] of 0.328 µg/mL and an MPI [1] of 100. The IC50 [2] was 0.124 µg/mL, the IC80 [2] was 0.344 µg/mL and the MPI [2] was 100. It also gave an IC50 [3] of 27 µg/mL, an IC80 [3] of over 50 µg/mL and an MPI [3] of 65. It also gave an IC50 [4] of 14.4 µg/mL, an IC80 [4] of 47.3 µg/mL and an MPI [4] of 82. It also gave an IC50 [5] of 20.8 µg/mL, an IC80 [5] of over 50 µg/mL and an MPI [5] of 74. For the same substance, the IC50 [6] was 21.7 µg/mL, the IC80 [6] was over 50 µg/mL and the MPI [6] was 75. For the same substance, the IC50 [7] was 0.652 µg/mL, the IC80 [7] was 2.28 µg/mL and the MPI [7] was 100. The IC50 [8] was 0.624 µg/mL, the IC80 [8] was 2.85 µg/mL and the MPI [8] was 100. The IC50 [9] was 0.083 µg/mL, the IC80 [9] was 0.283 µg/mL and the MPI [9] was 100. The IC50 [10] was 0.092 µg/mL, the IC80 [10] was 0.243 µg/mL and the MPI [10] was 100. For the same substance, the IC50 [11] was 0.07 µg/mL, the IC80 [11] was 0.188 µg/mL and the MPI [11] was 100. The IC50 [12] was 0.32 µg/mL, the IC80 [12] was 1.46 µg/mL and the MPI [12] was 100. It also gave an IC50 [13] of 0.061 µg/mL, an IC80 [13] of 0.19 µg/mL and an MPI [13] of 100. The IC50 [14] was 0.117 µg/mL, the IC80 [14] was 0.443 µg/mL and the MPI [14] was 100. It also gave an IC50 [15] of 0.34 µg/mL, an IC80 [15] of 2.1 µg/mL and an MPI [15] of 100. For the same substance, the IC50 [16] was 0.194 µg/mL, the IC80 [16] was 1.25 µg/mL and the MPI [16] was 100. For the same substance, the IC50 [17] was 0.888 µg/mL, the IC80 [17] was 4.81 µg/mL and the MPI [17] was 100. For the same substance, the IC50 [18] was 17.5 µg/mL, the IC80 [18] was over 50 µg/mL and the MPI [18] was 80. For the same substance, the IC50 [19] was 0.417 µg/mL, the IC80 [19] was 1.34 µg/mL and the MPI [19] was 100. For the same substance, the IC50 [20] was 1.67 µg/mL, the IC80 [20] was 12.8 µg/mL and the MPI [20] was 97. For the same substance, the IC50 [21] was 0.229 µg/mL, the IC80 [21] was 0.786 µg/mL and the MPI [21] was 100. For the same substance, the IC50 [22] was 0.102 µg/mL, the IC80 [22] was 0.344 µg/mL and the MPI [22] was 100. It also gave an IC50 [23] of 21.7 µg/mL, an IC80 [23] of over 50 µg/mL and an MPI [23] of 72. The IC50 [24] was 0.068 µg/mL, the IC80 [24] was 0.209 µg/mL and the MPI [24] was 100. The IC50 [25] was 0.354 µg/mL, the IC80 [25] was 1.17 µg/mL and the MPI [25] was 100. The IC50 [26] was 0.098 µg/mL, the IC80 [26] was 0.296 µg/mL and the MPI [26] was 100. It also gave an IC50 [27] of 0.692 µg/mL, an IC80 [27] of 3.75 µg/mL and an MPI [27] of 100. It also gave an IC50 [28] of 24.4 µg/mL, an IC80 [28] of over 50 µg/mL and an MPI [28] of 75. The IC50 [29] was 21.9 µg/mL, the IC80 [29] was over 50 µg/mL and the MPI [29] was 68. The IC50 [30] was 0.036 µg/mL, the IC80 [30] was 0.1 µg/mL and the MPI [30] was 100. The IC50 [31] was 0.101 µg/mL, the IC80 [31] was 0.443 µg/mL and the MPI [31] was 100. For the same substance, the IC50 [32] was 0.096 µg/mL, the IC80 [32] was 0.277 µg/mL and the MPI [32] was 100. It also gave an IC50 [33] of 13 µg/mL, an IC80 [33] of 46.4 µg/mL and an MPI [33] of 82. It also gave an IC50 [34] of 0.14 µg/mL, an IC80 [34] of 0.597 µg/mL and an MPI [34] of 100. For the same substance, the IC50 [35] was 0.062 µg/mL, the IC80 [35] was 0.257 µg/mL and the MPI [35] was 100. It also gave an IC50 [36] of 0.122 µg/mL, an IC80 [36] of 0.549 µg/mL and an MPI [36] of 100. It also gave an IC50 [37] of 0.457 µg/mL, an IC80 [37] of 1.54 µg/mL and an MPI [37] of 100.

NIH 45-46 (antibody) was tested, and the neutralization IC50 [1] was 0.07 µg/mL, the neutralization IC80 [1] was 0.26 µg/mL and the neutralization IC50 [2] was 0.11 µg/mL. For the same substance, the neutralization IC80 [2] was 0.43 µg/mL, the IC50, titer in TZM.bl cells [3] was over 50 µg/mL and the IC80, titer in TZM.bl cells [3] was over 50 µg/mL. It also gave a neutralization IC50 [4] of over 50 µg/mL, a neutralization IC80 [4] of over 50 µg/mL and a neutralization IC50 [5] of over 30 µg/mL. For the same substance, the neutralization IC80 [5] was over 30 µg/mL, the neutralization IC50 [6] was over 50 µg/mL and the neutralization IC80 [6] was over 50 µg/mL. The neutralization IC50 [7] was 0.55 µg/mL, the neutralization IC80 [7] was 1.56 µg/mL and the neutralization IC50 [8] was 0.07 µg/mL. The neutralization IC80 [8] was 0.61 µg/mL, the neutralization IC50 [9] was 0.01 µg/mL and the neutralization IC80 [9] was 0.03 µg/mL. For the same substance, the IC50, titer in TZM.bl cells [10] was 0.14 µg/mL, the IC80, titer in TZM.bl cells [10] was 0.91 µg/mL and the neutralization IC50 [11] was 0.01 µg/mL. It also gave a neutralization IC80 [11] of 0.03 µg/mL, an IC50, titer in TZM.bl cells [12] of 0.26 µg/mL and an IC80, titer in TZM.bl cells [12] of 1.16 µg/mL. It also gave a neutralization IC50 [13] of 1.9 µg/mL, a neutralization IC80 [13] of 9.56 µg/mL and a neutralization IC50 [14] of under 0.05 µg/mL. The neutralization IC80 [14] was under 0.05 µg/mL, the neutralization IC50 [15] was 0.15 µg/mL and the neutralization IC80 [15] was 0.55 µg/mL. The IC50, titer in TZM.bl cells [16] was 0.01 µg/mL, the IC80, titer in TZM.bl cells [16] was 0.03 µg/mL and the neutralization IC50 [17] was 0.14 µg/mL. The neutralization IC80 [17] was 0.48 µg/mL, the neutralization IC50 [18] was 0.09 µg/mL and the neutralization IC80 [18] was 0.38 µg/mL. The neutralization IC50 [19] was 0.14 µg/mL, the neutralization IC80 [19] was 0.28 µg/mL and the neutralization IC50 [20] was 0.15 µg/mL. For the same substance, the neutralization IC80 [20] was 0.88 µg/mL, the IC50, titer in TZM.bl cells [21] was 0.03 µg/mL and the IC80, titer in TZM.bl cells [21] was 0.13 µg/mL. It also gave an IC50, titer in TZM.bl cells [22] of 1.68 µg/mL, an IC80, titer in TZM.bl cells [22] of 1.68 µg/mL and an IC50, titer in TZM.bl cells [23] of over 30 µg/mL. It also gave an IC80, titer in TZM.bl cells [23] of over 30 µg/mL, a neutralization IC50 [24] of 0.05 µg/mL and a neutralization IC80 [24] of 0.31 µg/mL. For the same substance, the neutralization IC50 [25] was 0.14 µg/mL, the neutralization IC80 [25] was 0.63 µg/mL and the neutralization IC50 [26] was 0.05 µg/mL. For the same substance, the neutralization IC80 [26] was 0.22 µg/mL, the neutralization IC50 [27] was 2.05 µg/mL and the neutralization IC80 [27] was 12.1 µg/mL. The neutralization IC50 [28] was 0.01 µg/mL, the neutralization IC80 [28] was 0.06 µg/mL and the IC50, titer in TZM.bl cells [29] was over 30 µg/mL. The IC80, titer in TZM.bl cells [29] was over 30 µg/mL, the neutralization IC50 [30] was 0.25 µg/mL and the neutralization IC80 [30] was 1.49 µg/mL. The IC50, titer in TZM.bl cells [31] was 0.04 µg/mL, the IC80, titer in TZM.bl cells [31] was 0.44 µg/mL and the neutralization IC50 [32] was 0.01 µg/mL. The neutralization IC80 [32] was 0.08 µg/mL, the IC50, titer in TZM.bl cells [33] was 0.3 µg/mL and the IC80, titer in TZM.bl cells [33] was 1.49 µg/mL. The IC50, titer in TZM.bl cells [34] was 12.8 µg/mL, the IC80, titer in TZM.bl cells [34] was over 50 µg/mL and the neutralization IC50 [35] was 0.02 µg/mL. For the same substance, the neutralization IC80 [35] was 0.07 µg/mL, the neutralization IC50 [36] was 0.04 µg/mL and the neutralization IC80 [36] was 0.17 µg/mL. The neutralization IC50 [37] was 0.34 µg/mL and the neutralization IC80 [37] was 1.48 µg/mL.
